Where a chain is given by its changes, count along the chain named.
B1: NRC3_wobSeed105_DR4_A13T_o1 (dsDNA)
DNA 1: GCATCTCTAGGTTAAGATAGTTCAGTGAATGCAAATGCGATTGACAGCGTAGAATGAAGG
DNA 2: CCTTCATTCTACGCTGTCAATCGCATTTGCATTCACTGAACTATCTTAACCTAGAGATGC
B2: NRC3_wobSeed123_DR5_G26T_o1 (dsDNA)
DNA 1: GCCCTCGGAGGACAACAGGAGGTCATAGCTGCCAGAGCGATTGACAGCGTAGAATGAAGG
DNA 2: CCTTCATTCTACGCTGTCAATCGCTCTGGCAGCTATGACCTCCTGTTGTCCTCCGAGGGC
B3: NRC3_wobSeed53_DR2_A22G_o1 (dsDNA)
DNA 1: GCCCTTACGGGTCACGAGGTTGTAGCACGACGAGCGGCGATTGACAGCGTAGAATGAAGG
DNA 2: CCTTCATTCTACGCTGTCAATCGCCGCTCGTCGTGCTACAACCTCGTGACCCGTAAGGGC
B4: NRC3_wobSeed93_DR3_G25A_o1 (dsDNA)
DNA 1: GCAGTCAAAGTTCATCTAGGTAACATAAGATATGCTGCGATTGACAGCGTAGAATGAAGG
DNA 2: CCTTCATTCTACGCTGTCAATCGCAGCATATCTTATGTTACCTAGATGAACTTTGACTGC
B5: NRC3_wobSeed113_DR4_G19A_o1 (dsDNA)
DNA 1: GCATATGTAGGTTAGCTGAGGTCATTCAGACTAGGCGCGATTGACAGCGTAGAATGAAGG
DNA 2: CCTTCATTCTACGCTGTCAATCGCGCCTAGTCTGAATGACCTCAGCTAACCTACATATGC
B6: NRC3_wobSeed104_DR4_A11G_o1 (dsDNA)
DNA 1: GCTCTTGTAGGTCAATAGAGGTTAAGAAAGTGCGCTGCGATTGACAGCGTAGAATGAAGG
DNA 2: CCTTCATTCTACGCTGTCAATCGCAGCGCACTTTCTTAACCTCTATTGACCTACAAGAGC
B7: NRC3_wobSeed49_DR2_G11T_o1 (dsDNA)
DNA 1: GCCAAACTAGTTCAAGAGGTCAAAGTCCGCTTCCCGGCGATTGACAGCGTAGAATGAAGG
DNA 2: CCTTCATTCTACGCTGTCAATCGCCGGGAAGCGGACTTTGACCTCTTGAACTAGTTTGGC
B8: NRC3_wobSeed18_DR0_A4T_o1 (dsDNA)
DNA 1: GCGTTACAGGGTCAAGGCCAGAGTACGCGTATTGATGCGATTGACAGCGTAGAATGAAGG
DNA 2: CCTTCATTCTACGCTGTCAATCGCATCAATACGCGTACTCTGGCCTTGACCCTGTAACGC
B9: NRC3_wobSeed125_DR5_A30G_o1 (dsDNA)
DNA 1: GCCCTTACGGGTCACTGACAGGTTATAGCGTTTGGAGCGATTGACAGCGTAGAATGAAGG
DNA 2: CCTTCATTCTACGCTGTCAATCGCTCCAAACGCTATAACCTGTCAGTGACCCGTAAGGGC
B10: NRC3_wobSeed37_DR1_G10A_o1 (dsDNA)
DNA 1: GCCGTCCAAAGTCAAAGGTCAGTGAAGAGATGACGGGCGATTGACAGCGTAGAATGAAGG
DNA 2: CCTTCATTCTACGCTGTCAATCGCCCGTCATCTCTTCACTGACCTTTGACTTTGGACGGC
B11: NRC3_wobSeed136_DR5_G5C_o1 (dsDNA)
DNA 1: GCTACCCTAGGTCATTCAGGGGCCAGTATAGAAAGCGCGATTGACAGCGTAGAATGAAGG
DNA 2: CCTTCATTCTACGCTGTCAATCGCGCTTTCTATACTGGCCCCTGAATGACCTAGGGTAGC
B12: NRC3_wobSeed136_DR5_T27C_o1 (dsDNA)
DNA 1: B11 DNA 1 with C5G, T27C
DNA 2: B11 DNA 2 with A34G, G56C
B13: NRC3_wobSeed136_DR5_G26C_o1 (dsDNA)
DNA 1: B11 DNA 1 with C5G, G26C
DNA 2: B11 DNA 2 with C35G, G56C
B14: NRC3_wobSeed117_DR4_A18G_o1 (dsDNA)
DNA 1: GCCGTCAAAGTTCAACTGAGGTAACGTAAAGCACGCGCGATTGACAGCGTAGAATGAAGG
DNA 2: CCTTCATTCTACGCTGTCAATCGCGCGTGCTTTACGTTACCTCAGTTGAACTTTGACGGC
B15: NRC3_wobSeed27_DR1_G10T_o1 (dsDNA)
DNA 1: GCACTCGGATGACAAAGGTCAGAGCTACGCCAGTGAGCGATTGACAGCGTAGAATGAAGG
DNA 2: CCTTCATTCTACGCTGTCAATCGCTCACTGGCGTAGCTCTGACCTTTGTCATCCGAGTGC
B16: NRC3_wobSeed27_DR1_A23G_o1 (dsDNA)
DNA 1: B15 DNA 1 with T10G, A23G
DNA 2: B15 DNA 2 with T38C, A51C
B17: NRC3_wobSeed2_DR0_T5G_o1 (dsDNA)
DNA 1: GCCCGAGTTGGTCAAGGTCACACACGCTATAGGTACGCGATTGACAGCGTAGAATGAAGG
DNA 2: CCTTCATTCTACGCTGTCAATCGCGTACCTATAGCGTGTGTGACCTTGACCAACTCGGGC
B18: NRC3_wobSeed133_DR5_G22A_o1 (dsDNA)
DNA 1: GCCGTCCAAGGTCAATGCTAGATCAGTGAAAGCATTGCGATTGACAGCGTAGAATGAAGG
DNA 2: CCTTCATTCTACGCTGTCAATCGCAATGCTTTCACTGATCTAGCATTGACCTTGGACGGC
B19: NRC3_wobSeed40_DR1_G5C_o1 (dsDNA)
DNA 1: GCTACCCTAGGTCATGGGCCAGTATACCACGCGAACGCGATTGACAGCGTAGAATGAAGG
DNA 2: CCTTCATTCTACGCTGTCAATCGCGTTCGCGTGGTATACTGGCCCATGACCTAGGGTAGC
B20: NRC3_wobSeed64_DR2_G5C_o1 (dsDNA)
DNA 1: GCTACCCTAGGTCATTGGGCCAGTATAGTACGCATCGCGATTGACAGCGTAGAATGAAGG
DNA 2: CCTTCATTCTACGCTGTCAATCGCGATGCGTACTATACTGGCCCAATGACCTAGGGTAGC
B21: NRC3_wobSeed76_DR3_o1 (dsDNA)
DNA 1: GCCCTACTGGGCCAAAAAGGTCATTGATGCCGATAAGCGATTGACAGCGTAGAATGAAGG
DNA 2: CCTTCATTCTACGCTGTCAATCGCTTATCGGCATCAATGACCTTTTTGGCCCAGTAGGGC
B22: NRC3_wobSeed58_DR2_G21A_o1 (dsDNA)
DNA 1: GCATCGAAAGGTCGTGAGGTAAGTATACAGAAAGGCGCGATTGACAGCGTAGAATGAAGG
DNA 2: CCTTCATTCTACGCTGTCAATCGCGCCTTTCTGTATACTTACCTCACGACCTTTCGATGC
B23: NRC3_wobSeed100_DR4_T8G_o1 (dsDNA)
DNA 1: GCCCTACGGGGCCACGAAAGGTCATTGATTCAGTGAGCGATTGACAGCGTAGAATGAAGG
DNA 2: CCTTCATTCTACGCTGTCAATCGCTCACTGAATCAATGACCTTTCGTGGCCCCGTAGGGC
B24: NRC3_wobSeed137_DR5_T27C_o1 (dsDNA)
DNA 1: GCATATGTAGGTTACATCCGGGTCATCCAGGCTATGGCGATTGACAGCGTAGAATGAAGG
DNA 2: CCTTCATTCTACGCTGTCAATCGCCATAGCCTGGATGACCCGGATGTAACCTACATATGC

Target: LXRa:RXRa (Homo sapiens, UniProt Q13133;P19793 full;full)
Assay: no ligand; PBM; 270 nM : 90 nM RXRa; PBS pH 7.4, 2% milk, 0.02% Triton X-100, 1 mM DTT, BSA, 0.4 mg/ml salmon testes DNA
Details: tags: His kept;His cleaved; copies: 1;1; label: surface-attached array probe
Outline: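 Binding buffer was PBS pH 7.4 with 2% milk, 0.02% Triton X-100, 1 mM DTT, 0.2 mg/mL BSA and 0.4 mg/ml salmon testes DNA. In it, ligand-free nuclear receptor dimers were incubated 1 h on custom Agilent 4×180K protein-binding microarrays carrying double-stranded probes. Antibodies against each partner (one per run) detected binding, and z-scores were calculated against random background probes after regression normalization of scanned fluorescence.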

Sequence of LXRa:RXRa (Q13133 whole entry, chain 1 of 2): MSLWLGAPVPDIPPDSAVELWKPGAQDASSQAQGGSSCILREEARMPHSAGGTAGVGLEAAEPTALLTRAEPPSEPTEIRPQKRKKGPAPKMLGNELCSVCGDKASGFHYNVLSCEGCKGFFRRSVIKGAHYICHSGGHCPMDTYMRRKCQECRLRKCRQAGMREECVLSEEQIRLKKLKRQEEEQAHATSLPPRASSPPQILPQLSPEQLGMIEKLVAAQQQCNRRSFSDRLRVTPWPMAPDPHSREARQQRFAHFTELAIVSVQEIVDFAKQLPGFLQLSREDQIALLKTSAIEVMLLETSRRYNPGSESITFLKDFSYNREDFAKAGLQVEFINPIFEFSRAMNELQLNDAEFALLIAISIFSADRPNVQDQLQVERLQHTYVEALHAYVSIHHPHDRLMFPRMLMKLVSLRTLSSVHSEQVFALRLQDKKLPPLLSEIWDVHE
Sequence of LXRa:RXRa (P19793 whole entry, chain 2 of 2): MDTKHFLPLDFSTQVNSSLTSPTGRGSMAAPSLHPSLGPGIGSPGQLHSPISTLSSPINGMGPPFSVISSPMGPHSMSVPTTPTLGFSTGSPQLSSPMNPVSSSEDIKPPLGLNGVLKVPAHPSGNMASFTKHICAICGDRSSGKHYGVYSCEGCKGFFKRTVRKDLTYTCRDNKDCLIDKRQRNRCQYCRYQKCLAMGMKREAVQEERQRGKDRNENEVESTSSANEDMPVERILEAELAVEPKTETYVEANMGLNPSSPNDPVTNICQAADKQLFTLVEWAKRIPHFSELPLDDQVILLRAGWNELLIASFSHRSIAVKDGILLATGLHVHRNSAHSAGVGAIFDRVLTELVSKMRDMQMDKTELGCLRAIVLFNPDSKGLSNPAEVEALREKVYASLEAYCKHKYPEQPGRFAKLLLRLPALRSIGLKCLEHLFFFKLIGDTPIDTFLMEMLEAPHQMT

Row | Binder | binding signal
1 | B1 | 6.81 PBM z-score against 500 random probes
2 | B2 | 3.93 PBM z-score against 500 random probes
3 | B3 | 4.14 PBM z-score against 500 random probes
4 | B4 | 6.61 PBM z-score against 500 random probes
5 | B5 | 6.64 PBM z-score against 500 random probes
6 | B6 | 7.01 PBM z-score against 500 random probes
7 | B7 | 6.74 PBM z-score against 500 random probes
8 | B8 | 4.02 PBM z-score against 500 random probes
9 | B9 | 4.16 PBM z-score against 500 random probes
10 | B10 | 3.96 PBM z-score against 500 random probes
11 | B11 | 6.72 PBM z-score against 500 random probes
12 | B12 | 3.99 PBM z-score against 500 random probes
13 | B13 | 4.28 PBM z-score against 500 random probes
14 | B14 | 6.87 PBM z-score against 500 random probes
15 | B15 | 4.09 PBM z-score against 500 random probes
16 | B16 | 4.04 PBM z-score against 500 random probes
17 | B17 | 3.9 PBM z-score against 500 random probes
18 | B18 | 4.19 PBM z-score against 500 random probes
19 | B19 | 6.6 PBM z-score against 500 random probes
20 | B20 | 6.89 PBM z-score against 500 random probes
21 | B21 | 4.25 PBM z-score against 500 random probes
22 | B22 | 4.07 PBM z-score against 500 random probes
23 | B23 | 6.67 PBM z-score against 500 random probes
24 | B24 | 4.22 PBM z-score against 500 random probes

Source: paper PMC6555819, “Comprehensive study of nuclear receptor DNA binding provides a revised framework for understanding receptor specificity”
